Target: ATG16L1-(StrepII^2x)ATG5–ATG12 complex (UniProt Q676U5;Q9H1Y0;O94817)
Experiment: BLI

Sequence of ATG16L1-(StrepII^2x)ATG5–ATG12 complex (Q676U5 whole entry, chain 1 of 3): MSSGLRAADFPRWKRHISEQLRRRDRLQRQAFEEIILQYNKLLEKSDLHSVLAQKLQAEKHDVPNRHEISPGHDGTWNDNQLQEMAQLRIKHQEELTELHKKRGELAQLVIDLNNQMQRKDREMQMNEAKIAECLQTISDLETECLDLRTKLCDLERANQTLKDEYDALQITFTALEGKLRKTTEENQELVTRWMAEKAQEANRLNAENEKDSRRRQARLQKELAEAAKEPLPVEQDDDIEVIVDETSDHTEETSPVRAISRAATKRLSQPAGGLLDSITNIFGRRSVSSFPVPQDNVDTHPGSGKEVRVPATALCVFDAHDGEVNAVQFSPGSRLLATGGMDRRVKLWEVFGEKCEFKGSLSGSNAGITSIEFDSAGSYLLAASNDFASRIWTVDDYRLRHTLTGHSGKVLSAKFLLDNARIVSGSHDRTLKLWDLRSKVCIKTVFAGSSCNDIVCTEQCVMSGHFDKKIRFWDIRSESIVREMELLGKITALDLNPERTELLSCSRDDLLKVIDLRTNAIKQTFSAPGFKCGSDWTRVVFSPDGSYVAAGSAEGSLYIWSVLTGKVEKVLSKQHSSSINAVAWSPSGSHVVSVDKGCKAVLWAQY
Sequence of ATG16L1-(StrepII^2x)ATG5–ATG12 complex (Q9H1Y0 whole entry, chain 2 of 3): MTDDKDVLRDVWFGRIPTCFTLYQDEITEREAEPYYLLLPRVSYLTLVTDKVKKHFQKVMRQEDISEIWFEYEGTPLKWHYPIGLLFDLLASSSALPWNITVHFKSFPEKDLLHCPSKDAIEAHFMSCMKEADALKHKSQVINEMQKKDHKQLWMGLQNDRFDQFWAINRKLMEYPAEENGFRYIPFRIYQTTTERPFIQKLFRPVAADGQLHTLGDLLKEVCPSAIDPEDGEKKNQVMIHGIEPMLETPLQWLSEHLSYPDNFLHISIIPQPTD
Sequence of ATG16L1-(StrepII^2x)ATG5–ATG12 complex (O94817 whole entry, chain 3 of 3): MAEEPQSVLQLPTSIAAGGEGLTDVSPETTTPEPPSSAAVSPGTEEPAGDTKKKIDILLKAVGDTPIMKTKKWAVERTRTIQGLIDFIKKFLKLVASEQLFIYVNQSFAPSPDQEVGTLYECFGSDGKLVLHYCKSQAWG

B1: 6xHis-3xFLAG-V1H(1-351) (domain or fragment)
chain: MTKMDIRGAVDAAVPTNIIAAKAAEVRANKVNWQSYLQGQMISAEDCEFIQRFEMKRSPEEKQEMLQTEGSQCAKTFINLMTHICKEQTVQYILTMVDDMLQENHQRVSIFFDYARCSKNTAWPYFLPMLNRQDPFTVHMAARIIAKLAAWGKELMEGSDLNYYFNWIKTQLSSQKLRGSGVAVETGTVSSSDSSQYVQCVAGCLQLMLRVNEYRFAWVEADGVNCIMGVLSNKCGFQLQYQMIFSIWLLAFSPQMCEHLRRYNIIPVLSDILQESVKEKVTRIILAAFRNFLEKSTERETRQEYALAMIQCKVLKQLENLEQQKYDDEDISEDIKFLLEKLGESVQDLSS
Kd: 9.2 µM
